Test: soluble on expression in E. coli; label from the status in PepcDB or PDB records

Row | Sequence | soluble on expression in E. coli
1 | MMGYNFNEKPLLIFWETTKACGLKCEHCRASAILEALPDEMNYDESIDFLSHIKEFGKPYPIVILTGGDMLRKRRINDIMKYLKDAEIPFSVSPAVTEMLTDERIKSFLEFGVSSVSISLDGMKDVHEKVRGVPGVFDDTVRVVEKLIKEGIPMQINTVVMRSTVNDLPKVLKLILDKSVKVWEVFFLIKTGRGIDREDLSPEEYEDVNKYLLYATGYGIRIRTVESPIFRRITLQSGSTGRIEGGPLYQKLVSETEKIIGKKPSAIAKSVIPTRDGYGIIFVGHNGDVYPSGFLPYKVGNVKNQSIVDIYRKSELLRKIRDPDNLVGKCGFCEYRSVCGGSRARAFAYSSDPFGTDPSCSYMPKSVVSA | not soluble
2 | MMKFSVIVPTYNSEKYITELLNSLAKQDFPKTEFEVVVVDDCSTDQTLQIVEKYRNKLNLKVSQLETNSGGPGKPRNVALKQAEGEFVLFVDSDDYINKETLKDAAAFIDEHHSDVLLIKMKGVNGRGVPQSMFKETAPEVTLLNSRIIYTLSPTKIYRTALLKDNDIYFPEELKSAEDQLFTMKAYLNANRISVLSDKAYYYATKREGEHMSSAYVSPEDFYEVMRLIAVEILNADLEEAHKDQILAEFLNRHFSFSRTNGFSLKVKLEEQPQWINALGDFIQAVPERVDALVMSKLRPLLHYARAKDIDNYRTVEESYRQGQYYRFDIVDGKLNIQFNEGEPYFEGIDIAKPKVKMTAFKFDNHKIVTELTLNEFMIGEGHYDVRLKLHSRNKKHTMYVPLSVNANKQYRFNIMLEDIKAYLPKEKIWDVFLEVQIGTEVFEVRVGNQRNKYAYTAETSALIHLNNDFYRLTPYFTKDFNNISLYFTAITLTDSISMKLKGKNKIILTGLDRGYVFEEGMASVVLKDDMIMGMLSQTSENEVEILLSKDIKKRDFKNIVKLNTAHMTYSLKLEHHHHHH | soluble
3 | MMKKRASHHLVICTLIDTLRFRLSSRKAISMNAFNKLVKHSKKISNFNHLSSIVGWDQAAVMPSGGAEARSQAMAELSVHIHGLMTQPQLADWFAEAESETLNIEQQATLREMKRQWQQATVLPEALVEAQSLAGSKCEHAWRSQRKNNDWTGFEKNWAEVVKLSQEEAQIRAEATGKTPYDAMLELYEPGTTTEQLNRVFSDVKTWLPSLIDVVIEKQSSESFIAPKGHYPAESQKALGLDVMKLLQFDFNHGRLDESVHPFCGGVPSDVRITTRYNESEFVQSLMGIVHETGHARYEQGLPKHLAGTPAGEARSMGIHESQSLFFEMQVGRSPAFIAHLAELAGKHFSAMNDPVFRVENIQKLYTRVQKDFIRVDADELTYPAHVILRFEIERDLMNGKIKHTDVPELWDQKMQAYLGLSTKGNDQNGCMQDIHWTDGSFGYFPSYTLGAMYAAQFMAAMKKTVDVDGAIRRGDLSPIFTWLSENIWSKGSLFSTDELVKQATGETLNPEHFKAHLSQRYLK | not soluble
4 | MMLSTEGREGFVVKVRGLPWSCSADEVMRFFSDCKIQNGTSGIRFIYTREGRPSGEAFVELESEEEVKLALKKDRETMGHRYVEVFKSNSVEMDWVLKHTGPNSPDTANDGFVRLRGLPFGCSKEEIVQFFSGLEIVPNGMTLPVDFQGRSTGEAFVQFASQEIAEKALKKHKERIGHRYIEIFKSSRAEVRTHYDPPRKLMAMQRPGPYDRPGAGRGYNSIGRGAGFERMRRGAYGGGYGGYDDYGGYNDGYGFGSDRFGRDLNYCFSGMSDHRYGDGGSSFQSTTGHCVHMRGLPYRATENDIYNFFSPLNPMRVHIEIGPDGRVTGEADVEFATHEDAVAAMAKDKANMQHRYVELFLNSTAGTSGGAYDHSYVELFLNSTAGASGGAYGSQMMGGMGLSNQSSYGGPASQQLSGGYGGGYGGQSSMSGYDQVLQENSSDYQSNLA | soluble
5 | MMMDLNIRRVVLDVDKGLNRPTLVELAAAIEKVQGVEAVNIIVTEMDMETMGTNITVEGTNINYDELIETIENTGSAIHSVDEIAVGKRLIENVRRNQN | soluble
6 | MMNPLIIKLGGVLLDSEEALERLFSALVNYRESHQRPLVIVHGGGCVVDELMKGLNLPVKKKNGLRVTPADQIDIITGALAGTANKTLLAWAKKHQIAAVGLFLGDGDSVKVTQLDEELGHVGLAQPGSPKLINSLLENGYLPVVSSIGVTDEGQLMNVNADQAATALAATLGADLILLSDVSGILDGKGQRIAEMTAAKAEQLIEQGIITDGMIVKVNAALDAARTLGRPVDIASWRHAEQLPALFNGMPMGTRILA | soluble
7 | MMPYILVFMVCIFLTSISSRKKIIPLLLSCLILSLFAGFRDKNIGSDTDFYPHWYISEIRYIHNLIDLITIETERNLDKGYLFLYWIASWIGNQ | not soluble
8 | MMRRGGQHLSPDPIGLGGGIQPQSYVHNPLEWVDPLGLTESGCKQPNSPENSQKPEVKKPNISTKIHDGAQGKHIEGHNNYVEGKSVIDAKPQELLDNYHAGNVNTSRVINENKIKVDFGDVNGTHKDMNGTNTSTSWGLIHSRKNGAHIVPALPDTILEHHHHHH | not soluble
9 | MMRRGLLLLNLGTPNNADIRAVKLYLREFLTDKRVIDLPTIPRYILVYCLILPFRSPKSAQAYQSIWTEKGSPLLYHSQNLVTKLQSALKDEYKIALGMRYGTPSITTALAELKDCHSLTILPLFPQYSSAATGSAIEKTLSHLANQEIIPSIKIIRDFYQRPEYIQAQAKIMKPYIKDNFHLLFSYHGIPERHIHKSGCDTLCPQTCTPIYDKNQACYRAQCYQTSLLLAKELQLGTHQYTTAFQSRLGKTPWIKPYTDEIFAELISKGIKNIVVSCPSFVADCLETLEEIGIRAKEQWEKLGGEQFILTPCMNDHPEWIKAIQSIVNEQF | not soluble
10 | MMRVAIFTDTFTPQVNGVAKTLERLTQYFQKEQIAYSVFAPQHTAEDNFVANVNKMRSIPLTILYPECRFSFPTPRIKRELLSFKPDIIHIATPFNMGLCGLYYAKKLNIPVVGSYHTDFDAYLRYYKIEFLSNMLWNYLKWFHSHMQKNFVPSFETLHQLKNKGFQTLSIWGRGVDCTLFHPAYNTDLFRKKYNITAKYVLSYVGRIAPEKDIDTLQHLIVKTAHTRNDIHWLIAGDGPLATSLREAVPKTNITFTGYLQGGDLAEAYACSNIMVFPSATETFGNVVLESLACGTPVIGANSGGVKNIITDGKTGVLCPPKNEDAFLSSIYFLLQNEEKLEQMGIESSSFAKSKSWDEVFRGLLNQYEEVLQHNASELLALEHHHHHH | soluble
11 | MMSILRSQCQISLDVTLSVPNVSEGIVRLLDPQTNTEIANYPIYKILFCVRGHDGTPESDCFAFTESHYNAELFRIHVFRCEIQEAVSRILYSFATAFRRSAKQTPLSATAAPQTPDSDIFTFSVSLEIKEDDGKGYFSAVPKDKDRQCFKLRQGIDKKIVIYVQQTTNKELAIERCFGLLLSPGKDVRIVTALIRFGSMGKVQMESRMLFGELESKIPTFSSCNEEPPKDKVLFMTTAVDLVITEVQEPVRFLLETKVRVCSPNERLFWPFSKRSTTENFFLKLKQIKQRERKNNTDTLYEVVCLESLEHHHHHHLEHHHHHHLEHHHHHHLEHHHHHHLEHHHHHHLEHHHHHHLEHHHHHH | not soluble
12 | MMSLLAVGLVFGLAACSGTSDAKGKIVISGKKFTEQVILTHLLAEYVKANTDLDVEVKDSLGGAFMLQQAIENGDVDMYVEYTGTGYLNILKQPYDPAKTPEQIYNETKKLYKEKYNIAWLKPLGFNNTYALAMRRDLAEKLGVKTYSDLAKHSSSLTFGSDAEFFERSDGYDGLVDTYGFQFKKKVTIDPDLQYEAAKNSEIDVITAYTTDARIKKYDLVVLKDDKQYFPPYHAVPIIRQEVLDANPGLEKKLNKLANILTDEKMMELNGQVNLEGKQPREVALDFLKAEGLID | not soluble
13 | MMTLPYPYSSSARFYALRLLPGQEVFSQLHAFAQQQQLHAAWIAGCTGSLTDIALRYAGQEGTTLLNGTFEVISLNGTLEQSGEHLHLCVSDPHGTMLGGHMMPGCTVRTTLELVIGSLEELAFSRQPCALSGYDELHISPVK | not soluble
14 | MNAAEVIVYEHVNFGGKSFDATSDQPGAGDNLNDKISSIKVKSGTWRFYEYINYGGRYWDLGPGEYSSVESAGIPDNSISSFRQI | soluble
15 | MNAPRCLRRLLERQWRQGGWLSTLLRPLAALTGLVVARKRNAYLTGARAAWRAPVPVVVVGNIYVGGTGKTPVVIEVVRQLQARGWTPGVVSRGYGVDVGAAPRVGQGQLAAADYGDEPALIARATGAAIAVHPHRPRAVQALLRAHPGVDVVVSDDGLQHLALARDVEIVVQDERGVGNGRLLPAGPLREPAQRLADVDAIVTNAGRPRAAAAPAAGAPRQLAMWLEPTHAQRVTDGATRTLADLAALPPARLAAAAGIGNPARFFQTLEQAGIRPAHTLALPDHYAYAQSPFTALDADLILVTAKDAIKCAALDDPRLWAVQVGTRLSDPDFGDWLSATLRARQPKLAAALEHHHHHH | not soluble
